For this assay, the system named is 575 putative partners (preys) of 22 WT SH3-containing proteins. Briefly: DHFR-PCA on solid medium, WT and SH3-deleted baits (Fig. 1B). In kind it is cell-based, Saccharomyces cerevisiae. As to conditions: number of PPIs; SH3 domain in its own protein; DHFR-PCA; Fig2D,S2F. Summed up: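 In S. cerevisiae, 22 SH3-containing baits fused genomically to DHFR F[1,2], either WT or with each SH3 replaced via CRISPR by a poly-Gly/Ser linker, screened against 575 DHFR F[3] preys plus 40 negative controls in 1536 arrays, preys duplicated at randomized positions.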

B1: MYO5 (protein, UniProt Q04439 1-1219, looked up)
Myosin-5: MAILKRGARKKVHQEPAKRSANIKKATFDSSKKKEVGVSDLTLLSKISDEAINENLKKRFLNATIYTYIGHVLISVNPFRDLGIYTDAVMNEYKGKNRLEVPPHVFAIAESMYYNMKSYNENQCVIISGESGAGKTEAAKRIMQYIAAASSTHTESIGKIKDMVLATNPLLESFGCAKTLRNNNSSRHGKYLEIKFNNQFEPCAGNITNYLLEKQRVVSQIKNERNFHIFYQFTKGASDAYRQTFGVQKPEQYVYTAAAGCISAETIDDLQDYQETLKAMRVIGLGQEEQDQIFRMLAAILWIGNVSFIENEEGNAQVRDTSVTDFVAYLLQIDSQLLIKSLVERIMETNHGMKRGSVYHVPLNIVQADAVRDALAKAIYNNLFDWIVSRVNKSLQAFPGAEKSIGILDIYGFEIFEHNSFEQICINYVNEKLQQIFIQLTLKSEQETYEREKIQWTPIKYFDNKVVCDLIEARRPPGIFAAMNDSVATAHADSNAADQAFAQRLNLFTTNPHFDLRSNKFVIKHYAGDVTYDIDGITDKNKDQLQKDLVELIGTTTNTFLATIFPDTVDRESKRRPPTAGDKIIKSANDLVETLSKAQPSYIRTIKPNETKSPNDYDDRQVLHQIKYLGLQENVRIRRAGFAYRQVFEKFVERFYLLSPHCSYAGDYTWQGDTLDAVKYILQDSSIPQQEYQLGVTSVFIKTPETLFALEHMRDRYWHNMAARIQRAWRRFLQRRIDAATKIQRTIRERKEGNKYEKLRDYGTKVLGGRKERRSMSLLGYRAFMGDYLSCNESKSKGAYIKRQVSIKEKVIFSIHGEALHTKFGRSAQRLKKTFLLTPTTLYIVGQTLVQNAMTYTQDYKIDVRNIQAVSLTNLQDDWVAIKLASSGQPDPLINTYFKTELITHLKRLNDKIQIKIGSAIEYQKKPGKLHSVKCQINESAPKYGDIYKSSTISVRRGNPPNSQVHKKPRKKSSISSGYHASSSQATRRPVSIAAAQHVPTAPASRHSKKPAPPPPGMQNKAATRRSVPNPASTLTASQSNARPSPPTAATRATPAATPAAAAMGSGRQANIPPPPPPPPPSSKPKEPMFEAAYDFPGSGSPSELPLKKGDVIYITREEPSGWSLGKLLDGSKEGWVPTAYMKPHSGNNNIPTPPQNRDVPKPVLNSVQHDNTSANVIPAAAQASLGDGLANALAARANKMRLESDDEEANEDEEEDDW
Take B1: the “SH3-dependent PPIs” value stood at 19.

B2: MYO3 (protein, UniProt P36006 1-1272, looked up)
Myosin-3: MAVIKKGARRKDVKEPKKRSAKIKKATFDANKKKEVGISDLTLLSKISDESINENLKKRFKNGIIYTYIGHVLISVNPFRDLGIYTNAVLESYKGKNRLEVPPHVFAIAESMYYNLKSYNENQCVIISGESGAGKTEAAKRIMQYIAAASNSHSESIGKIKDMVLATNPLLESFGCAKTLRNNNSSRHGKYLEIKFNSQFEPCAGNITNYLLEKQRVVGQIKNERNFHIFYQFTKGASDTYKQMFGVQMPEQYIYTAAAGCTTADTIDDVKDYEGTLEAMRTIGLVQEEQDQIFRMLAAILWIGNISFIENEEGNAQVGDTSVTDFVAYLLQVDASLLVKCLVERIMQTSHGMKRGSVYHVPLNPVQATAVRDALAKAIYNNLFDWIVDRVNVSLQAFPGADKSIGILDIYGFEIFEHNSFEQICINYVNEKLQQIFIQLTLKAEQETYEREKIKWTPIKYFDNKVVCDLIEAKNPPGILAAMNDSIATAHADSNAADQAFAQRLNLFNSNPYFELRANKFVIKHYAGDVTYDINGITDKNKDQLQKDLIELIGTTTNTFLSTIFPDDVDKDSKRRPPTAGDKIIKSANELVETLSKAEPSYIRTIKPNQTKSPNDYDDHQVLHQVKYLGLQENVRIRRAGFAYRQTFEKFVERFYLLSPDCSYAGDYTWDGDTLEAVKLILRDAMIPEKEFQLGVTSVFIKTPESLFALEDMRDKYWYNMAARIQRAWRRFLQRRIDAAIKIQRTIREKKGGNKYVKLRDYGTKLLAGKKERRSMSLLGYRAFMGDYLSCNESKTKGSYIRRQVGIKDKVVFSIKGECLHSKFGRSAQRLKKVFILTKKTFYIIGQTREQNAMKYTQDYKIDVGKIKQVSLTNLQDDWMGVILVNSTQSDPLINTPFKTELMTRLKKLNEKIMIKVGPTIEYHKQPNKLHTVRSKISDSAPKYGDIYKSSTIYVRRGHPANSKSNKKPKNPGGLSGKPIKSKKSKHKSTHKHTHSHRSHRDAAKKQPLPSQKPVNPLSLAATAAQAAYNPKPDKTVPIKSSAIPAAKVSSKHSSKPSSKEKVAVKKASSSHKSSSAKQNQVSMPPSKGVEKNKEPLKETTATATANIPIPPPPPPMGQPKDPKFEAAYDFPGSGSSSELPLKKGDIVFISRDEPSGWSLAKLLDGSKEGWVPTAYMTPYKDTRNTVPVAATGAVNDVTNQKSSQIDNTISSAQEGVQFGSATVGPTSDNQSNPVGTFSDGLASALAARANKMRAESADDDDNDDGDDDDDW
As for B2, the “SH3-dependent PPIs” value came out at 17.
